# According to the RNAGym collection of RNA variant scans (doi:10.7554/elife.80360):
# B1: Twister Ribozyme (parent)
# chain: AACACUGCCAAUGCCGGUCCCAAGCCCGGAUAAAAGUGGAGGGGGCGG
# Variants of: B1
# Test: self-cleavage, relative activity (ratio to wild type); higher = more cleavage; co-transcriptional
row,Variant,self-cleavage
1,CACACUGGCAAUGCCGGUCCCAAGCCCGGAUAAAAGUGGAGGGGGCGG [A1C C8G],0.187
2,AACACUGCCAAUGCCGGUCGCAAGCCCGGAUACAAGUGGAGGGGGCGG [C20G A33C],0.0661
3,AACACUGCCAAUGCCGGUCCGAAGCGCGGAUAAAAGUGGAGGGGGCGG [C21G C26G],0.0411
4,AACACUGCCAGUGUCGGUCCCAAGCCCGGAUAAAAGUGGAGGGGGCGG [A11G C14U],0.943
5,AACAUUGCCAAUGCCGGUCCCAAGCCCGGAUAAAAGUGGAGGGGGCUG [C5U G47U],0.691
6,AACACUGCCAAUGCCGGUCUCAAGCCCGGAUAAAAGCGGAGGGGGCGG [C20U U37C],0.192
7,AACACUGCCAAUGCCGGUCCCAAGCCCGGAUAAAAGUGGAGGGCGUGG [G44C C46U],0.732
8,AAUACUGCCAAUGCCGGUCCCAAGCCCGGAUAAAAGUGGAGGGGGCGC [C3U G48C],0.484
9,AGCACUGCCAAUGCCGGUCCCAAGCCCGGAUAACAGUGGAGGGGGCGG [A2G A34C],0.151
10,AACACUGCCAAUGCCGGUCUCAAGCCCGGAUAAAAGUGAAGGGGGCGG [C20U G39A],0.288
11,AACACUGCCAAUGCAGGUGCCAAGCCCGGAUAAAAGUGGAGGGGGCGG [C15A C19G],0.151
12,AACACUGCCAAUGCCGGUCCCAUGCCCCGAUAAAAGUGGAGGGGGCGG [A23U G28C],0.249
13,AAUACUGCCAGUGCCGGUCCCAAGCCCGGAUAAAAGUGGAGGGGGCGG [C3U A11G],0.438
14,AACACUGCCAAUGCCGGUCCCAAGUCCGGAUAAAAGUCGAGGGGGCGG [C25U G38C],0.847
15,AACACUGCCAAUGCCGGUCCCAAGCCCUAAUAAAAGUGGAGGGGGCGG [G28U G29A],0.947
16,AACACUGCCAAUGCCGGUCCCAAGCCAGGAUAAAAGUGUAGGGGGCGG [C27A G39U],0.0773
17,AACACUGCCAAUGCCGGUCCCAAGCCCGGCUAAAAGGGGAGGGGGCGG [A30C U37G],0.306
18,AACACUGCCAAUGCCGGUCCCAAGCCAGGAUAAAAGUGGAGGCGGCGG [C27A G43C],0.136
19,AACACUGCCAUUGCCGGUCCCAAGCCCGGAUAAAAUUGGAGGGGGCGG [A11U G36U],0.849
20,AACACUGCCAAUGCCGGUCCCGAGCCCGGAUAAAAGCGGAGGGGGCGG [A22G U37C],0.129
21,AACACUGCCAAUGCCGGUCCUAAGCCCGGAUAAAAGCGGAGGGGGCGG [C21U U37C],0.0764
22,AACACUGCCAAUGCCGGUCCCAAGCCCGUAUAAACGUGGAGGGGGCGG [G29U A35C],0.892
23,AACAUUGCCAGUGCCGGUCCCAAGCCCGGAUAAAAGUGGAGGGGGCGG [C5U A11G],0.77
24,AACACUGCCAAUGCUGGUCCCAAGCCCGGAUAAGAGUGGAGGGGGCGG [C15U A34G],0.806
25,AACACUGCCAUUGCCGGUCCCAAGCCCUGAUAAAAGUGGAGGGGGCGG [A11U G28U],0.968
26,AACACUGACAAUGCCGGUCCCAAGCCCGGAUAAAAGUAGAGGGGGCGG [C8A G38A],0.343
27,ACCACUGCCAAUGCCGGUCCCAAGCCCGGAUACAAGUGGAGGGGGCGG [A2C A33C],0.0306

row,Variant,self-cleavage
1,AACUCUGCCAAUGCCGGUCCCCAGCCCGGAUAAAAGUGGAGGGGGCGG [A4U A22C],0.0902
2,UACACUGCCAAUGCCGGUCACAAGCCCGGAUAAAAGUGGAGGGGGCGG [A1U C20A],0.0791
3,AACACUGCCAAUGCCGAUCCCAAGCCCGGAUAAAAGUGGAGGGGGCAG [G17A G47A],0.297
4,AACACUGCCAAUGCCGGUCCCCAGCCCGGAUAAAAGUGGAGGGUGCGG [A22C G44U],0.967
5,AACACUGCCAAUGCCGGUCCCAAGCCCGGAUAUAACUGGAGGGGGCGG [A33U G36C],0.174
6,AACACUGCCACUGCCGGUCCCAUGCCCGGAUAAAAGUGGAGGGGGCGG [A11C A23U],0.149
7,AACAAUGCCAAUGCCGGUCCCAAGCCCGAAUAAAAGUGGAGGGGGCGG [C5A G29A],0.362
8,AACACUGCCAAUGCCGGUCCAAAGCCCGGAUAAAAGUGGAGGGGGCCG [C21A G47C],0.0714
9,AACACUGCCGAUGCCGGUCCCAAGCCCGAAUAAAAGUGGAGGGGGCGG [A10G G29A],1.09
10,AACACUGCCAAUGCCGGUCCCCAGCCCGGAUAAAAGUGGAGGGGGCGA [A22C G48A],1.01
11,AACACUGCCAAAGCAGGUCCCAAGCCCGGAUAAAAGUGGAGGGGGCGG [U12A C15A],0.901
12,AACACUGCCAAUGCCGGUCCCAAGCCCGGAUAAAAGUGGAGGUGCCGG [G43U G45C],0.271
13,AAGACUGCCAAUGGCGGUCCCAAGCCCGGAUAAAAGUGGAGGGGGCGG [C3G C14G],0.0805
14,AACACUGCCAAUGCCGGUCCCAAGCCCGGAAAAAAGUGGAGGGGACGG [U31A G45A],0.727
15,AAUACUGCCAAUGCCUGUCCCAAGCCCGGAUAAAAGUGGAGGGGGCGG [C3U G16U],0.183
16,AACACUGCCAAGGCCGGUCCCAAGCCCGGAUAAAAGUGGAGGGGGUGG [U12G C46U],0.866
17,AACACUGCCAAUGCCGGUCCCGCGCCCGGAUAAAAGUGGAGGGGGCGG [A22G A23C],0.115
18,AACACUGCCAUUGCCGGUCCAAAGCCCGGAUAAAAGUGGAGGGGGCGG [A11U C21A],0.114
19,AACACUGCCAAUGCCGGUCCCUAGCCCGGAUAAAAGUGGAGCGGGCGG [A22U G42C],0.154
20,AACACUGCCAAUGCCGGUCCCAAGUCCGGGUAAAAGUGGAGGGGGCGG [C25U A30G],0.911
21,AACACUGCCAAUGCCGGUCCCAAGCCCGGAUAACAGUGCAGGGGGCGG [A34C G39C],0.0839
22,AACGCUGCCAAUGCCGGUCACAAGCCCGGAUAAAAGUGGAGGGGGCGG [A4G C20A],0.14
23,AACACUGCCAAUGCCGGUCCCAAGCCCGGAUAACAGUGGCGGGGGCGG [A34C A40C],0.122
24,AACACUGCCAAUGCCGGUCCCAAUCCCUGAUAAAAGUGGAGGGGGCGG [G24U G28U],0.0893
25,AACACUGCCAAUGCCGGUCCCAACCCCGGAUAAAAGUAGAGGGGGCGG [G24C G38A],0.106
26,AACACUGCCACUGCCGGUCCCAAGCGCGGAUAAAAGUGGAGGGGGCGG [A11C C26G],0.08
27,AACACUGCCAAUGCCGGUCCCAAGCCCGGAUAAAAGUGUAGUGGGCGG [G39U G42U],0.149
